The text below walks through data of patent publication US20190062420A1 (Janssen / Centocor, published 2019).

In test [1] the target is T1, human FcγRI (NM_000566) expressed on cells (human, UniProt P12314 16-374).
T1 construct: Transiently expressed on Expi293F cells
Description: flow cytometry; Expi293F cells transfected with FcγRI. As for the experimental part:
(§1) Plasmids expressing cDNAs encoding human FcγRI (NM_000566) (SEQ ID NO: 44), FcγRIIA (NM_021642) (SEQ ID NO: 2), FcγRIIB (NM_004001) (SEQ ID NO: 3), and FcγRIIIA (NM_000569) (SEQ ID NO: 45) (Origene) were transiently transfected into Expi293F cells by ExpiFectamine293 transfection kit (Life Technologies). Flow cytometry assays were performed 48 h after transfection.
(§2) 2×10⁵ cells per well were seeded in 96-well plate and blocked in BSA Stain Buffer (BD Biosciences, San Jose, USA) for 30 min at 4° C. Cells were incubated with test mAbtyrin on ice for 1.5 h at 4° C. After being washed twice with BSA stain buffer, the cells were incubated with R-PE labeled anti-human or anti-mouse IgG secondary antibody (Jackson Immunoresearch Laboratories) for 45 min at 4° C. The cells were washed twice in stain buffer and then resuspended in 150 μL of Stain Buffer containing 1:200 diluted DRAQ7 live/dead stain (Cell Signaling Technology, Danvers, USA). PE and DRAQ7 signals of the stained cells were detected by Miltenyi MACSQuant flow cytometer (Miltenyi Biotec, Auburn, USA) using B2 and B4 channel respectively. Live cells were gated on DRAQ7 exclusion and the geometric mean fluorescence signals were determined for at least 10,000 live events collected. FlowJo software (Tree Star) was used for analysis. Data was plotted as the logarithm of antibody concentration versus mean fluorescence signals. Nonlinear regression analysis was performed by GraphPad Prism 6 (GraphPad Software, Inc.) and EC₅₀ values were calculated.
(Flow cytometry measures light scatter and fluorescence of single cells or particles in a stream.)

The target in test [2] is T2, human FcγRIIB (NM_004001) expressed on cells (human, UniProt P31994 43-310).
T2 construct: Transiently expressed on Expi293F cells; also called Expi293F FcγRIIB; HEK293F cells expressing FcγRIIB
T2 sequence: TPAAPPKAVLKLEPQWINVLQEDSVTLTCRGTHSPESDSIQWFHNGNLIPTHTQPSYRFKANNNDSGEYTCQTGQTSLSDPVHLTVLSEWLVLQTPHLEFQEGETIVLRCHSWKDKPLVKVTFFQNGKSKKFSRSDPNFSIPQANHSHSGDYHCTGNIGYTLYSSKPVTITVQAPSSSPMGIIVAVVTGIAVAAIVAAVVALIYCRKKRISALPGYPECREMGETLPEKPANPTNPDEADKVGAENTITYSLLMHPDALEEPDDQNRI
Put plainly: flow cytometry; Raji cells (express predominantly FcγRIIB).

Test [3] concerns the target T2, human FcγRIIB (NM_004001) expressed on …. Put plainly: flow cytometry; Expi293F cells transfected with FcγRIIB. As to the method: as §1, §2
Test [4] shares this target. Put plainly: cell-based or functional assay.
The target in a further test is T3, FcγRIIA protein (human, UniProt P12318 36-217, biotinylated (SureLINK Biotin Kit) in the ELISA of Example 1).
T3 construct: Soluble/recombinant antigen used in ELISA; also called bt-FcγRIIA; recombinant FcγRIIA protein
T3 sequence: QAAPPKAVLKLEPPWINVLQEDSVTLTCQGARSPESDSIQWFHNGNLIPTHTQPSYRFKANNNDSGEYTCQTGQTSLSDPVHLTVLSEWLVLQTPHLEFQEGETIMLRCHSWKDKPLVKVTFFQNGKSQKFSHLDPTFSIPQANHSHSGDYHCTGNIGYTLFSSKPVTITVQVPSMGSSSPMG
Description: ELISA; FcγRIIA protein coated on plate, anti-human IgG-HRP detection. As to the method: Effect of the mAbtyrins on T cell activation was evaluated. Briefly, recombinant FcγRIIB or FcγRIIA protein was coated on the plate to provide the crosslinking activity. For T cell activation assay, 100 μL of 30 ng/mL anti-CD3 antibody (OKT3) and 1 μg/mL FcγRIIB or FcγRIIA protein in DPBS were coated in U-bottomed 96-well tissue culture plate overnight. CD4 positive T cells were isolated from PBMC by negative selection. OX40 expression was induced by culturing the isolated T cells in the presence of 1 μg/mL PHA overnight. On the assay day, the coating solution in the plate were aspirated and 150 μL RPMI media was added to block the plate. The cultured T cells were washed three times by RPMI culture media and between 25,000 to 50,000 CD4 positive T cells were seeded in each well in the assay plate. Test mAbtyrins were added to the cells and the plate was incubated for 3 days. T cell activation was assessed by the induction of IFNγ or TNFα production, which was quantitated by human IFNγ or TNFα ELISA detection kit (Biolegend). Prior to T cell activation assay, the binding affinity of mAbtyrins to immobilized FcγRIIB or FcγRIIA protein were evaluated by an ELISA assay. […] The binding of mAbtyrins to immobilized FcγRIIB or FcγRIIA protein were detected by HRP-conjugated anti-Human IgG(γ) secondary antibody and quantitated by ELISA assay using TMB substrate.

T1 sequence (P12314 16-374 limits assumed): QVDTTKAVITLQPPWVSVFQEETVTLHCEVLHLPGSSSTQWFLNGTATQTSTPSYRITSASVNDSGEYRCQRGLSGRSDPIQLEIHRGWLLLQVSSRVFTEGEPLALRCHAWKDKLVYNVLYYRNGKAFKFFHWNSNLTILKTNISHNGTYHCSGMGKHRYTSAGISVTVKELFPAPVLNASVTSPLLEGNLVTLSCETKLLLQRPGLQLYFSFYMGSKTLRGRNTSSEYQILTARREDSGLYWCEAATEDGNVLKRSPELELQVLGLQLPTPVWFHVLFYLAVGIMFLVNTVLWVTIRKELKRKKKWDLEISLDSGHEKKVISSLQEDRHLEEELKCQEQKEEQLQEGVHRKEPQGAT

B1: OX40SF2IgG2sigma_R2BS29_HC-C (bispecific antibody)
heavy: QVQLVQSGAEVKKPGSSVKVSCKASGYTFKDYTMHWVRQAPGQGLEWIGGIYPNNGGSTYNQNFKDRVTLTADKSTSTAYMELSSLRSEDTAVYYCARMGYHGPHLDFDVWGQGTTVTVSSASTKGPSVFPLAPCSRSTSESTAALGCLVKDYFPEPVTVSWNSGALTSGVHTFPAVLQSSGLYSLSSVVTVPSSNFGTQTYTCNVDHKPSNTKVDKTVERKCCVECPPCPAPPAAASSVFLFPPKPKDTLMISRTPEVTCVVVDVSAEDPEVQFNWYVDGVEVHNAKTKPREEQFNSTFRVVSVLTVLHQDWLNGKEYKCKVSNKGLPSSIEKTISKTKGQPREPQVYTLPPSREEMTKNQVSLTCLVKGFYPSDIAVEWESNGQPENNYKTTPPMLDSDGSFFLYSKLTVDKSRWQQGNVFSCSVMHEALHNHYTQKSLSLSPGKGGGGGSGGGGSGGGGSGGGGSLPAPKNLVVSRVTEDSARLSWTAPDAAFDSFPIYYWEYRVGGEAIVLTVPGSERSYDLTGLKPGTEYFVYINGVKGGEESRPLSAIFTT
light: DIQMTQSPSSLSASVGDRVTITCKASQDVGAAVAWYQQKPGKAPKLLIYWASTRHTGVPSRFSGSGSGTDFTLTISSLQPEDFATYYCQQYINYPLTFGGGTKVEIKRTVAAPSVFIFPPSDEQLKSGTASVVCLLNNFYPREAKVQWKVDNALQSGNSQESVTEQDSKDSTYSLSSTLTLSKADYEKHKVYACEVTHQGLSSPVTKSFNRGEC
notes: mAbtyrin: anti-OX40 antibody OX40SF2, effector silent IgG2sigma, with linker and R2BS29 FN3 domain at the C-terminus of the heavy chain; also called mAbtyrin
For orientation: EC50 means the midpoint of the concentration-response curve. Molecule B1 showed a concentration giving a half-maximal response (EC50) in test [1] of more than 10 µg/mL. In addition, in test [2], the “fold binding signal over OX40SF2IgG2sigma at 10 µg/mL” value was not below 6 fold. For the same molecule, the concentration giving a half-maximal response (EC50) in test [3] was determined as 1.52 µg/mL. For the same molecule, in test [4], the “% activity at 1 µg/ml with Raji cells (HEK-Blue: OX40 NF-κB reporter, relative to 1 µg/ml OX40 ligand)” value is 86% and the “fold of agonism enhancement upon crosslinking (Raji cells)” value worked out at 15 fold.

B2: OX40SF2IgG1 (antibody)
heavy: not shown
light: B1 light
notes: Anti-OX40 antibody, wild-type IgG1; control without FN3 domain
B2: the concentration giving a half-maximal response (EC50) in test [1] came to 0.494 µg/mL.

B3: OX40SF2IgG2sigma (antibody)
heavy: QVQLVQSGAEVKKPGSSVKVSCKASGYTFKDYTMHWVRQAPGQGLEWIGGIYPNNGGSTYNQNFKDRVTLTADKSTSTAYMELSSLRSEDTAVYYCARMGYHGPHLDFDVWGQGTTVTVSSASTKGPSVFPLAPCSRSTSESTAALGCLVKDYFPEPVTVSWNSGALTSGVHTFPAVLQSSGLYSLSSVVTVPSSNFGTQTYTCNVDHKPSNTKVDKTVERKCCVECPPCPAPPAAASSVFLFPPKPKDTLMISRTPEVTCVVVDVSAEDPEVQFNWYVDGVEVHNAKTKPREEQFNSTFRVVSVLTVLHQDWLNGKEYKCKVSNKGLPSSIEKTISKTKGQPREPQVYTLPPSREEMTKNQVSLTCLVKGFYPSDIAVEWESNGQPENNYKTTPPMLDSDGSFFLYSKLTVDKSRWQQGNVFSCSVMHEALHNHYTQKSLSLSPGK
light: B1 light
notes: Anti-OX40 antibody, IgG2 sigma isotype (effector silent Fc: V234A, G237A, P238S, H268A, V309L, A330S, P331S against wild type IgG2); control without FN3 domain; also called parental antibody; parental OX40 antibody
In the case of B3, in the test with FcγRIIA protein, the binding result was “no binding”. Further, in test [4], the “% activity at 1 µg/ml with Raji cells (HEK-Blue: OX40 NF-κB reporter, relative to 1 µg/ml OX40 ligand)” value was found to be 2.2% and the “fold of agonism enhancement upon crosslinking (Raji cells)” value stood at 1 fold.
